In US20220235123A1 (UNIVERSITY OF TORONTO, published 2022):

Tests used:
[1] = target: T1, recombinant human vascular endothelial growth factor (hVEGF) 121 (human, UniProt P15692 27-147); test: competitive ELISA, 100 pM Fab with serial dilutions of hVEGF-121, free Fab caught on hVEGF-121 plate; Kd estimated from IC50
T1 construct: mature; also called human VEGF-A121; hVEGF 121 isoform
T1 sequence (looked up): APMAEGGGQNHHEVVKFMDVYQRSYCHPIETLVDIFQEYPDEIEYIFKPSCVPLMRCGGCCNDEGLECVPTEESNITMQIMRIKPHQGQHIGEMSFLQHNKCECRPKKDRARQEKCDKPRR

[2] = target: T2, recombinant human VEGF 165 isoform (human, UniProt P15692 27-191); test: competitive ELISA in solution, 10 pM hVEGF-165, free VEGF read with Quantikine kit
T2 construct: mature
Text: (§1) Kd calculated from the data fitted with a 5 parameter asymmetric model with Prism software.
Target sequence in this assay (P15692 other isoform, or with tags, fused parts or gaps): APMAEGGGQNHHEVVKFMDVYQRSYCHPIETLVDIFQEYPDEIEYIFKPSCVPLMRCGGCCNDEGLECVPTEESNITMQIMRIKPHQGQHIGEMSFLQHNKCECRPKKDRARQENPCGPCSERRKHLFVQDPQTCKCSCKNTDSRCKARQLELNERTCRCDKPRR

[3] = target: T2, recombinant human VEGF 165 isoform; test: cell-based or functional assay
[4] = target: T2, recombinant human VEGF 165 isoform; test: competitive ELISA in solution: 5 pM hVEGF-165 incubated with serial dilutions of the antibody; hVEGF-165 captured and detected with the Quantikine human VEGF ELISA kit
[5] = target: T2, recombinant human VEGF 165 isoform; test: competitive ELISA in solution: 5 pM hVEGF-165 incubated with serial dilutions of the antibody; hVEGF-165 captured and detected with the Quantikine human VEGF ELISA kit; 5 parameter fit
[6] = target: T2, recombinant human VEGF 165 isoform; test: competitive ELISA in solution: 5 pM hVEGF-165 incubated with serial dilutions of the Fab; hVEGF-165 captured and detected with the Quantikine human VEGF ELISA kit
Text: FIG. 11. Competitive Fab-ELISA.
Since library FF01159-1 was designed with a deletion of one residue near the end of CDR-L2 (Kabat), the selected Fabs FF03033-4 and FF03033-8 were mutagenized to reintroduce previously deleted tyrosine residue back at the deleted position.

[7] = target: T2, recombinant human VEGF 165 isoform; test: competitive ELISA in solution: 10 pM hVEGF-165 incubated with serial dilutions of the Fab; hVEGF-165 captured and detected with the Quantikine human VEGF ELISA kit
Text: FIG. 20. Competitive-ELISA. […] Kd was estimated using IC50 calculated from the data fitted with a 5 parameter asymmetric model with Prism software are shown in the table at the bottom of the figure.
as §1

[8] = target: T1, recombinant human vascular endothelial …; test: SPR, off rate of hVEGF-121 binding
[9] = target: T1, recombinant human vascular endothelial …; test: competitive Fab-ELISA
[10] = target: T1, recombinant human vascular endothelial …; test: single point competitive phage-ELISA: residual binding of the Fab-phage to hVEGF after competition with 1 nM hVEGF

B1: Fab 201 (Variant 201, produced from Clone #201) (Fab, V domains shown)
VH: EVQLVESGGGLVQPGGSLRLSCAASGFDLFHYSIHWVRQAPGKGLEWVAYIYPSYGYTYYADSVKGRFTISADTSKNTAYLQMNSLRAEDTAVYYCARHAWYYGWGLDYWGQGTLVTVSS
VL: DIQMTQSPSSLSASVGDRVTITCRASQAAYGRVAWYQQKPGKAPKLLIYKASELYAGVPSRFSGSRSGTDFTLTISSLQPEDFATYYCQQRGWYLFTFGQGTKVEIKR
notes: also called Fab-F8.y
B1 showed a Kd [1] of 0.11 nM and a Kd [2] of 0.025 nM.

B2: Fab FF03046-2 (Fab, V domains shown)
VH: EVQLVESGGGLVQPGGSLRLSCAASGFDLFHYSIHWVRQAPGKGLEWVAYIYPSYGYTYYADSVKGRFTISADTSKNTAYLQMNSLRAEDTAVYYCARHAWYYGWGLDYWGQGTLVTVSS
VL: DIQMTQSPSSLSASVGDRVTITCRASQAAYGRVAWYQQKPGKAPKLLIYKASELYAGVPSRFSGSRSGTDFTLTISSLQPEDFATYYCQQRGWYLFTFGQGTKVEIKR
notes: also called FF0346-2
B2 was tested, and the “EC50, HUVEC proliferation assay” value [3] was 0.2 nM, the “IC50 (read off the curve)” value [4] was ~0.09 nM and the Kd [5] was 0.09 nM. The “IC50 (read off the curve)” value [6] was ~0.09 nM.

B3: Fab variant 216 (Fab 216, derived from Clone #201) (Fab, V domains shown)
VH: EVQLVESGGGLVQPGGSLRLSCAASGFDLDHYSIHWVRQAPGKGLEWVAYIYPSYGYTYYADSVKGRFTISADTSKNTAYLQMNSLRAEDTAVYYCARHAWYYGWGLDYWGQGTLVTVSS
VL: DIQMTQSPSSLSASVGDRVTITCRASQAAYGRVAWYQQKPGKAPKLLIYKASELYAGVPSRFSGSRSGTDFTLTISSLQPEDFATYYCQQRGWYLFTFGQGTKVEIKR
With B3 the “IC50 (read off the curve)” value [7] was ~0.04 nM and the Kd [2] was 0.035 nM.

B4: FF0117-A5 (Fab, V domains shown)
VH: EVQLVESGGGLVQPGGSLRLSCAASGFDLFHYSIHWVRQAPGKGLEWVAYIYPSYGYTYYADSVKGRFTISADTSKNTAYLQMNSLRAEDTAVYYCARHAWYYGWGLDYWGQGTLVTVSS
VL: DIQMTQSPSSLSASVGDRVTITCRASQSVSSAVAWYQQKPGKAPKLLIYSASSLYSGVPSRFSGSRSGTDFTLTISSLQPEDFATYYCQQRGWYLFTFGQGTKVEIK
notes: Fourth generation Fab; also called FF0117-A5 (2); Fab-A5
B4 was tested, and the koff [8] was 0.000255 s⁻¹, the Kd [9] was 0.08 nM and the “Residual binding of competitive phage-ELISA 1nM” value [10] was 14%.
